Values quoted from earlier work as cited in PMC5116920.

Target: Histone H4 (UniProt P62805)

For TAF1 BD (from UniProt P21675), the Kd is listed as 100 µM.
